Experimental data: US20240317834A1, “COMPOSITIONS AND METHODS FOR NEUROLOGICAL DISEASES” (CODA BIOTHERAPEUTICS, INC., priority 2020, published 2024)

Test system: Lenti-X 293T cells
Assay: YFP fluorescence quenching anion reporter plate reader assay of engineered receptors stimulated with acetylcholine or a non-native ligand
Assay type: cell-based
From the text: To screen these mutant LGICs for those having novel response profiles to ligands, an anion reporter assay was developed to assess the function of the LGICs in a high throughput format. In this assay, cells expressing a YFP reporter whose fluorescence is quenched in the presence of anion are transfected with DNA encoding the channel of interest. Upon exposure to ligand, channels that are activated will flux anion, resulting in a dose-dependent quench of the YFP that can be detected on a plate reader. The greater the quench signal (i.e., the more positive the value), the higher the ligand activity on the receptor is.
Lenti-X 293T cells (LX293T, Clontech) were maintained in DMEM containing 10% FBS and 1% penicillin/streptomycin (Invitrogen). […] Two days before assay, cells were split at a density of 20,000 cells/well in a 96-well tissue culture plate coated with poly-d lysine (Thermo Scientific). The next day, the cells were transiently transfected with 0.1 μg of DNA per well using standard Fugene protocol (Promega). On the day of assay, cells were washed 2 times in 1× extracellular solution (1×ECS: 140 mM NaCl, 5 mM KCl, 1 mM MgCl2, 2 mM CaCl2), 10 mM HEPES, 10 mM glucose, pH 7.2, mOsms 300). After the last wash, 100 μL of 1×ECS was added to the wells and the plate was incubated at 37° C. for 30 min. While incubating the plate, the drugs were diluted to a 2× concentration in 1×ECS-NaI (same components as 1×ECS except the 140 mM NaCl was replaced by 140 mM NaI). The plates were then read on a Flexstation3 (Molecular Devices). Each well, 8 wells at a time, of the plate is read for 2 min using a Flexstation3 (Molecular Devices) as follows: 1) a baseline YFP fluorescence is read for 17 sec, 2) 100 μL of ligand is added, and 3) the changes in YFP fluorescence are then measured every 1.3 sec for 1 minute and 43 seconds. The percent quench is calculated from the average fluorescence of the last 10 seconds of the read divided by the baseline average of the first 15 seconds prior to the ligand addition.
FIGS. 1A-1J provide heat maps of the percent quench of YFP fluorescence following stimulation by various doses of either acetylcholine or the non-native ligand as indicated in the Figures. CODA71 (SEQ ID NO: 33) was used as a control, and CODA75 (SEQ ID NO: 29, a non-responding chimeric engineered receptor) was used as the negative control. Quenching of the fluorescence signal, as indicated by blue shaded cells, indicate the level of engineered receptor activation by the non-native ligand at that concentration.

B1: CODA330: engineered chimeric LGIC receptor, L131F in SEQ ID NO: 33 (protein)
chain: MRCSPGGVWLALAASLLHVSLQGEFQRKLYKELVKNYNPLERPVANDSQPLTVYFSLSLLQIMDVDEKNQVLTTNIWLQMSWTDHYLQWNVSEYPGVKTVRFPDGQIWKPDILLYNSADERFDATFHTNVFVNSSGHCQYLPPGIFKSSCPMDLKNFPMDVQTCKLKFGSWSYGGWSLDLQMQEADISGYIPNGEWDLVGIPGKRSERFYECCKEPYPDVTFTVTMRRRMGYYLIQMYIPSLLIVILSWISFWINMDAAPARVGLGITTVLTMTTQSSGSRASLPKVSYVKAIDIWMAVCLLFVFSALLEYAAVNFVSRQHKELLRFRRKRRHHKSPMLNLFQEDEAGEGRFNFSAYGMGPACLQAKDGISVKGANNSNTTNPPPAPSKSPEEMRKLFIQRAKKIDKISRIGFPMAFLIFNMFYWIIYKIVRREDVHNQ
modifications: synthetic sequence of chimeric LGIC
YFP fluorescence quenching using CNL001 (1 nM CNL001, first column): 76.289%
YFP fluorescence quenching using CNL001 (1 nM CNL001, second column): 78.896%
YFP fluorescence quenching using TC-5619/Bradanicline (1 nM brd): −12.4%
YFP fluorescence quenching using TC-5619/Bradanicline (3 nM brd): 25.12%
YFP fluorescence quenching using Varenicline (3 nM var, first column): −3.016
YFP fluorescence quenching using Varenicline (3 nM var, second column): −1.452
YFP fluorescence quenching using CNL001 (10 nM CNL001, first column): 79.339%
YFP fluorescence quenching using CNL001 (10 nM CNL001, second column): 80.245%
YFP fluorescence quenching using TC-5619/Bradanicline (10 nM brd): 72.19%
YFP fluorescence quenching using TC-5619/Bradanicline (30 nM brd): 76.35%
YFP fluorescence quenching using Facinicline (30 nM fac): 2.9
YFP fluorescence quenching using Varenicline (30 nM var, first column): −0.193
YFP fluorescence quenching using Varenicline (30 nM var, second column): −1.853
YFP fluorescence quenching using CNL001 (50 nM CNL001, first column): 80.831%
YFP fluorescence quenching using CNL001 (50 nM CNL001, second column): 80.605%
YFP fluorescence quenching using ABT-126 (50 nM abt): −16.22%
YFP fluorescence quenching using CNL001 (100 nM CNL001, first column): 81%
YFP fluorescence quenching using CNL001 (100 nM CNL001, second column): 80.663%
YFP fluorescence quenching using CNL002 (100 nM CNL002): −3.76%
YFP fluorescence quenching using ABT-126 (100 nM abt): −11.89%
YFP fluorescence quenching using AZD-0328 (100 nM azd0328): 27.56%
YFP fluorescence quenching using TC-5619/Bradanicline (100 nM brd): 78.94%
YFP fluorescence quenching using ABT-126 (300 nM abt): 39.23%
YFP fluorescence quenching using AZD-0328 (300 nM azd0328): 73.35%
YFP fluorescence quenching using TC-5619/Bradanicline (300 nM brd): 77.06%
YFP fluorescence quenching using Facinicline (300 nM fac): 74.96
YFP fluorescence quenching using Varenicline (300 nM var, first column): 6.915
YFP fluorescence quenching using Varenicline (300 nM var, second column): 6.513
YFP fluorescence quenching using Varenicline (500 nM var, first column): 27.593
YFP fluorescence quenching using Varenicline (500 nM var, second column): 29.863
YFP fluorescence quenching using CNL001 (1 uM CNL001, first column): 81.293%
YFP fluorescence quenching using CNL001 (1 uM CNL001, second column): 81.428%
YFP fluorescence quenching using CNL002 (1 uM CNL002): 68.51%
YFP fluorescence quenching using ABT-126 (1 uM abt): 66.5%
YFP fluorescence quenching using TC-5619/Bradanicline (1 uM brd): 78.61%
YFP fluorescence quenching using TC-6987 (1 uM tc6987): 53.37
YFP fluorescence quenching using Varenicline (1 uM var, first column): 67.499
YFP fluorescence quenching using Varenicline (1 uM var, second column): 65.57
YFP fluorescence quenching using Facinicline (10 uM fac): 81.97
YFP fluorescence quenching using TC-6987 (10 uM tc6987): 74.23
YFP fluorescence quenching using CNL002 (30 uM CNL002): 77.77%
YFP fluorescence quenching using AZD-0328 (30 uM azd0328): 77.14%
YFP fluorescence quenching using Facinicline (30 uM fac): 78.31
YFP fluorescence quenching using TC-6987 (500 uM tc6987): 72.25
percent quench of YFP fluorescence, 30 nM TC-6683 (TC-6683 30 nM): −22.26%
percent quench of YFP fluorescence, 300 nM TC-6683 (TC-6683 300 nM): −18.89%
percent quench of YFP fluorescence, 3 uM TC-6683 (TC-6683 3 uM): −9.45%
percent quench of YFP fluorescence, 30 uM TC-6683 (TC-6683 30 uM): −9.23%
percent quench of YFP fluorescence, 100 uM TC-6683 (TC-6683 100 uM): −10.75%
percent quench of YFP fluorescence, 10 uM ach (acetylcholine 10 uM): 11.07%
percent quench of YFP fluorescence, 100 uM ach (acetylcholine 100 uM): 43.34%
percent quench of YFP fluorescence, 1 mM ach (acetylcholine 1 mM): 77.52%
percent quench of YFP fluorescence, 3 mM ach (acetylcholine 3 mM): 74.89%
